Laboratory results from patent publication US20240084003A1 (SIMCERE ZAIMING PHARMACEUTICAL, published 2024).

Columns and labels:
human CD22 domain5-7-His = target: T1, human CD22 domain5-7-His (human, UniProt P20273 414-687); assay: ELISA, human CD22 domain5-7-His coated
T1 construct: also called hCD22 domain5-7-His; not shown: His tag
T1 sequence: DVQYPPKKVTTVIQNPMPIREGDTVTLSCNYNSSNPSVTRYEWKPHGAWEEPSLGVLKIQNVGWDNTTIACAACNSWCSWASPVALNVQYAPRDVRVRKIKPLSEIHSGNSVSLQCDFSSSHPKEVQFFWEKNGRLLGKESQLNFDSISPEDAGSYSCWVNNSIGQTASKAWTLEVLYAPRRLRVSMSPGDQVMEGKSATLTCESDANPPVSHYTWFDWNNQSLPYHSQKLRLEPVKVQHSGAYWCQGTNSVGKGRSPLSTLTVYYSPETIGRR

[1] = target: T2, monkey CD22 protein (ACROBiosystems, SI2-R52Ha) (monkey (rhesus monkey in paragraph 148), UniProt H9G1X2 18-686); assay: ELISA, monkey CD22-ECD-His coated
T2 construct: extracellular domain; also called monkey CD22-ECD; monkey CD22-ECD-His
T2 sequence: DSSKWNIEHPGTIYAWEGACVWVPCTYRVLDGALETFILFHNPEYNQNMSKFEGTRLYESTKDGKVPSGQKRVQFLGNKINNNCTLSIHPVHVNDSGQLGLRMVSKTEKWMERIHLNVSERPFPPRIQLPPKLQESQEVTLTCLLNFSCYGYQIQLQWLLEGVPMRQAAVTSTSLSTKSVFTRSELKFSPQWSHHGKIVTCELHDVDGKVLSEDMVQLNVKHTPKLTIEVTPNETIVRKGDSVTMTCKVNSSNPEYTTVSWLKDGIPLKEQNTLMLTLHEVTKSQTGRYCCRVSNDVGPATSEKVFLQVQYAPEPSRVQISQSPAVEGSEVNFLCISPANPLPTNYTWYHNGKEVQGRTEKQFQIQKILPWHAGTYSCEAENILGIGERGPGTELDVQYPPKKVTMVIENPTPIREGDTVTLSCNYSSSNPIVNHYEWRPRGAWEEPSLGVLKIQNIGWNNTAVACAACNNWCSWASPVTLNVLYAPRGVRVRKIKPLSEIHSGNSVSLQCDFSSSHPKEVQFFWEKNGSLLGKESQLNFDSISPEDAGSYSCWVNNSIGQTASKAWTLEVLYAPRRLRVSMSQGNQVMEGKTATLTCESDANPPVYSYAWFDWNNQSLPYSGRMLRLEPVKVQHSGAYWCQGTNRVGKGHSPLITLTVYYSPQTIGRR
Summary of the method: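 Plates were coated overnight at 4° C with 2 μg/mL CD22 protein in PBS and blocked with PBS + 2% BSA. Chimeric antibodies were incubated for 2 h at 37° C, then HRP-labelled secondary for 2 h at 37° C. Bound antibody was read by TMB colour development (30 min, RT) stopped with 1.0 N HCl.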

[2] = target: T3, human CD22-ECD-His protein (human, UniProt P20273 20-687); assay: ELISA, Ab 100.00 nM
T3 construct: Made in house in HEK293E; also called hCD22-ECD-His; recombinant human CD22-ECD His protein; not shown: His tag
T3 sequence: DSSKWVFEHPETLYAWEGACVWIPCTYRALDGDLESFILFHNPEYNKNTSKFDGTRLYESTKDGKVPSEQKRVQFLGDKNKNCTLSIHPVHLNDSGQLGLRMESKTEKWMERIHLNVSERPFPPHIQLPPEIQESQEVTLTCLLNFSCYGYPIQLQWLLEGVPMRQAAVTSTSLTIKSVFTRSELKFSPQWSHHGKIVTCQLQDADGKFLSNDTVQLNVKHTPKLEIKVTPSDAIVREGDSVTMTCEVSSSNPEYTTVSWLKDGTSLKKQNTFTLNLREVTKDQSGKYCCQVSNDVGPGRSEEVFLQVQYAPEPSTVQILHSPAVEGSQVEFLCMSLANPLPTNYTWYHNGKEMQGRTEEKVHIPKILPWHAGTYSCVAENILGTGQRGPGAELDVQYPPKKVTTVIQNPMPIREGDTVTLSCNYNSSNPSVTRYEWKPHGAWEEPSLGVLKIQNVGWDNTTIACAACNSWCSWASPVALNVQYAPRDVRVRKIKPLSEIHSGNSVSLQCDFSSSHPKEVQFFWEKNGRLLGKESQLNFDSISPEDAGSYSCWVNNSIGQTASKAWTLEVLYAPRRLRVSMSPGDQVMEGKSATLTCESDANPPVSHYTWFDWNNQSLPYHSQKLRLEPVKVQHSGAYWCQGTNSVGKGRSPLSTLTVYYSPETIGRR
Summary of the method: (§1)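 Plates were coated overnight at 4 °C with human CD22-ECD-His at 2 μg/mL in PBS and blocked with PBS + 2% BSA for 2 h at room temperature. Chimeric antibodies were bound for 2 h at 37 °C, then HRP secondary for 2 h at 37 °C; TMB developed 30 min, stopped with 1.0 N HCl.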

[3] = target: T3, human CD22-ECD-His protein; assay: ELISA, Ab 10.00 nM
Summary of the method: as §1

[4] = target: T3, human CD22-ECD-His protein; assay: ELISA, human CD22-ECD-His coated
Summary of the method: as §1

B1: F1.60.9 (antibody, human IgG1, kappa, V domains shown)
VH: QVQLKESGPGLVAPSQSLSITCTVSGLSLNNYGVSWVRQPPGKGLEWLGVIWGDGSTNYHSALISRLSISKDNSKSQVFLKLNSLHTDDTATYYCAINWGDYWGQGTTLIVSS
VL: DIKMTQSPSSMNASLGERVTITCKASQDINSYLSWFQQKPGKSPKILIYRANRLIDGVPSRFSGSGSGQDYSLTISSLEYEDMGIYYCLQYGVFPLTFGAGTKLELKR
notes: Human-murine chimeric IgG1, kappa
B1 was tested, and the “EC50 (read off the curve)” value (human CD22 domain5-7-His) was about 0.1 nM, the binding result [1] was “no binding (tested: 100 nM)” and the OD450 [2] was 2.82 OD450. For the same binder, the OD450 [3] was 2.55 OD450 and the “EC50 (read off the curve)” value [4] was about 0.05 nM.

B2: F2.205.9 (antibody, human IgG1, lambda, V domains shown)
VH: QVTLKESGPGILQPSQTLSLTCSFSGFSLSTSGMGVGWIRQPSGKGLEWLAHIWWDDDEYYNPALKSRLTISKDTSKNQVFLKIANVDTADTATYYCARISIPYGYYDWFFDVWGTGTTVTVSA
VL: QAVVTQESALTTSPGETVTLTCRSSTGAVTTRNYANWVQEKPDHLFTGLIGGTNNRAPGVPARFSGSLIGDKAALTITGAQTEDEAIYFCALWYSNHFIFGSGTKVTVLG
notes: Human-murine chimeric IgG1, lambda
For B2, the binding result (human CD22 domain5-7-His) was “no binding (tested: 100 nM)”, the “EC50 (read off the curve)” value [1] was about 0.03 nM and the OD450 [2] was 2.22 OD450. The OD450 [3] was 2.11 OD450 and the “EC50 (read off the curve)” value [4] was about 0.06 nM.

B3: F2.55.1 (antibody, human IgG1, lambda, V domains shown)
VH: QVTLKESGPGILQPSQTLSLTCSFSGFSLSTFPLGVGWIRQPSGKGLEWLAHVWWNDDDYYNPALKSRLTISKDTSNTRVFLSVASVDTAETATYYCARLNWDRWYFDVWGTGTTVTVSS
VL: QLVLTQSSSASFSLGASAKLTCTLSSQHSAYTVEWYQQQPLKPPKYVMELKKDGSHSTGDGIPDRFSGSSSGADRYLSISNIQPEDEAIYICGVGDTVKEQFVFGGGTKVTVLG
notes: as for B2
With B3 the binding result (human CD22 domain5-7-His) was “no binding (tested: 100 nM)”, the “EC50 (read off the curve)” value [1] was about 0.1 nM and the OD450 [2] was 2.08 OD450. For the same binder, the OD450 [3] was 2.16 OD450 and the “EC50 (read off the curve)” value [4] was about 0.06 nM.

B4: F2.70.2 (antibody, human IgG1, lambda, V domains shown)
VH: EVQLVESGGGLVKPGGSLKLSCAASGFTFSDYGMNWFRQAPEKGLEWVAYISRGSHTIYYADTVKGRFTISRDNAKNTLFLQMTSLRSNDTAMYYCVRMAGYYAMDYWGQGTSVTVSS
VL: QLVLTQSSSASFSLGASAKLTCTLSSQHSSYIIEWYQQQPLKPPKYVMELKKDGSHSTGDGIPDRFSGSSSGADRYLSISNIQPEDEAIYICGVGDTIKEQFVYVFGGGTKVTVLG
notes: as for B2
In the case of B4, the binding result (human CD22 domain5-7-His) is reported as “no binding (tested: 100 nM)”, the binding result [1] is reported as “no binding (tested: 100 nM)” and the OD450 [2] is reported as 2.24 OD450. The OD450 [3] was 2.03 OD450 and the “EC50 (read off the curve)” value [4] was about 0.03 nM.

B5: F2.104.10 (antibody, human IgG1, lambda, V domains shown)
VH: EVQLVESGGGFVKPGGSLKLSCAASGFTFSDYGMNWFRQAPEKGLEWVAYISRGSHTIYYADTVKGRFTISRDNAENTLFLQMTSLRSNDTAMYYCVRMAGYYAMDYWGQGTSLTVSS
VL: QLVLTQSSSASFSLGASAKLTCTLSSQHSSYIIEWYQQQPLKPPKYVMEVKKDGSHSTGDGIPDRFSGSSSGADRYLSISNIQSEDEAIYICGVGDTIKEQFVYVFGGGTKVTVLG
notes: as for B2
For B5, the binding result (human CD22 domain5-7-His) was “no binding (tested: 100 nM)”, the binding result [1] was “no binding (tested: 100 nM)” and the OD450 [2] was 2.44 OD450. For the same binder, the OD450 [3] was 2 OD450 and the “EC50 (read off the curve)” value [4] was about 0.03 nM.

B6: F1.245.2 (antibody, human IgG1, kappa, V domains shown)
VH: EVQLQQSGAELVKPGASVKLSCTGSGFNIKDYYIHWVKQRTEQGLEWMGRIDPEDGETEYAPKFQDEATITSDTSSNTAYLQLSSLTYEDTAVYYCAREAAGYFYRGSSYGYFDVWGTGTTVTVSS
VL: DFQMTQTTSFLSASLGDRVTISCSASQDISNYLNWYQQKPDGTVKLLIYYTSSLHSGVPSRFSGSGSGTDYSLTISNLEPEDIATYYCQQYSMLPYTFGGGTKLEMER
notes: as for B1
For B6, the binding result (human CD22 domain5-7-His) was “no binding (tested: 100 nM)”, the binding result [1] was “no binding (tested: 100 nM)” and the OD450 [2] was 2.7 OD450. For the same binder, the OD450 [3] was 2.54 OD450 and the “EC50 (read off the curve)” value [4] was about 0.01 nM.

B7: F2.343.16 (antibody, human IgG1, lambda, V domains shown)
VH: QVQLKQSGPGLVQPSQSLSITCTVSGFSLTGYGVQWVRQSPGKGLEWLGVIWGGGGTDYNAAFISRLNIIKDNSKSQVFFKMNSLQADDTAIYYCARYSKYGHFDVWGTGTAVTVSS
VL: QAVVTQESALTTSPGETVTLTCRSSTGAVTTSNYANWVQEKPDHLFTGLIGGTYNRVPGVPARFSGSLIGDKAALTITGAQTEDEAIYFCALWYSNHFWVFGGGTKLTVLG
notes: as for B2
In the case of B7, the binding result (human CD22 domain5-7-His) is reported as “no binding (tested: 100 nM)”, the binding result [1] is reported as “no binding (tested: 100 nM)” and the OD450 [2] is reported as 1.94 OD450. The OD450 [3] was 1.84 OD450 and the “EC50 (read off the curve)” value [4] was about 0.06 nM.
